According to patent US20150098945A1 (Daiichi Sankyo, published 2015):

T1: N-terminal FLAG-tagged cynomolgus monkey ROBO4, cynoROBO4-2 (pCI-FLAG-cynoROBO4-2) (cynomolgus monkey, UniProt Q8WZ75 28-1007 (human entry))
T1 chain: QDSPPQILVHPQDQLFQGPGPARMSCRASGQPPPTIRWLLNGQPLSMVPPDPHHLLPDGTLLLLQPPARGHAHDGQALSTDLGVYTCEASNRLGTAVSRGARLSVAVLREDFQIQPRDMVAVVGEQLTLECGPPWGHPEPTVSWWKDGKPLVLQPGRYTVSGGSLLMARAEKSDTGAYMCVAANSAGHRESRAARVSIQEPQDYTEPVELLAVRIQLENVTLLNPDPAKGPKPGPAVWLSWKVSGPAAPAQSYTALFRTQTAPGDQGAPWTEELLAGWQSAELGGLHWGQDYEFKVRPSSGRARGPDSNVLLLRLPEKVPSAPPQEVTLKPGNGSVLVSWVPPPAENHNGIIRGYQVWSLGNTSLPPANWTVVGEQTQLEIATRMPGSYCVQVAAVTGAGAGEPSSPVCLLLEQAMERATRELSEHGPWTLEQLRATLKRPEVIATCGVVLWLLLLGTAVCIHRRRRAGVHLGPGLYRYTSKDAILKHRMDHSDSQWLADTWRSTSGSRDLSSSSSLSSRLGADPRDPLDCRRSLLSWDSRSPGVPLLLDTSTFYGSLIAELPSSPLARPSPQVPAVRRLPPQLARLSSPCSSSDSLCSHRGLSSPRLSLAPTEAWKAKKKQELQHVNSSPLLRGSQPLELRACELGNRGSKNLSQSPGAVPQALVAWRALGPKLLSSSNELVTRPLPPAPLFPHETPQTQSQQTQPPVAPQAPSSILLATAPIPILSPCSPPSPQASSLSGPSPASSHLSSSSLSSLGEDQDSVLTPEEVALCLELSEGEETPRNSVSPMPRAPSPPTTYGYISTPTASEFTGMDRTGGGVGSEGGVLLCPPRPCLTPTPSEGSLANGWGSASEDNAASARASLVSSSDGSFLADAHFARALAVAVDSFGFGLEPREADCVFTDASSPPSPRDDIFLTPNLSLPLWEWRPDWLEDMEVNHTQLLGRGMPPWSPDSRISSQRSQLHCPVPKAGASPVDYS

T2: rat ROBO4 (pCI-raROBO4-transfected HEK293 cells) (rat, UniProt Q80W87 38-949 at identity 0.93))
T2 chain: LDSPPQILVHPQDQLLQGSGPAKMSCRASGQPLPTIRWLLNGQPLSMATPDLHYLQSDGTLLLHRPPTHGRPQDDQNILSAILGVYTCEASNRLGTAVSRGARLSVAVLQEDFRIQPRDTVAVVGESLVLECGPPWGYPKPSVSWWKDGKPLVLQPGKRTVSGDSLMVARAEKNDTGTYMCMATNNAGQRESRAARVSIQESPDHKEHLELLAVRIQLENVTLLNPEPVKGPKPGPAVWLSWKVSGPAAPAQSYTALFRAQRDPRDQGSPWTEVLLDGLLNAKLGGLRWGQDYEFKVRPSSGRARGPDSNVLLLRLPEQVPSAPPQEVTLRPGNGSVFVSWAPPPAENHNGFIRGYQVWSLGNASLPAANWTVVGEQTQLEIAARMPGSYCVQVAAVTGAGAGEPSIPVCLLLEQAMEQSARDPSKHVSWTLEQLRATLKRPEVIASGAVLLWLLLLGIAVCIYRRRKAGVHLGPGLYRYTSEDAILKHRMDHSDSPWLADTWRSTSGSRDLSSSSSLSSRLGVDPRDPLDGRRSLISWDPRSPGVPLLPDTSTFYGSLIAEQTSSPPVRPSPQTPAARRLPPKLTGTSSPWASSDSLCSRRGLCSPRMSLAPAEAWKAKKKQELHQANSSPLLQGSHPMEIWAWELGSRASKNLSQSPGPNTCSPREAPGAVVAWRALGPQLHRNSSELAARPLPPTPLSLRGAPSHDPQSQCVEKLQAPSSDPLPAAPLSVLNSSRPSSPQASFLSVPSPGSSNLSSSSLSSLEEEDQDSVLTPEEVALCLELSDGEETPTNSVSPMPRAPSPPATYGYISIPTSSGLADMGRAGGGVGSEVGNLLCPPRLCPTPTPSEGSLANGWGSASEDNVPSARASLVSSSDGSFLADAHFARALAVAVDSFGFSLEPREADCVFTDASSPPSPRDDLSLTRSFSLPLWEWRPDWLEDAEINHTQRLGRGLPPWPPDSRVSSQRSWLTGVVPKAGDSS


Legend:
[1] = target: T1, N-terminal FLAG-tagged cynomolgus …; test: flow cytometry (FC500), HEK293 cells transfected with pCI-FLAG-cynoROBO4-2, antibody at 10 µg/mL, FITC goat anti-human IgG Fc; control histogram IgG (human IgG)
[2] = target: T2, rat ROBO4 (pCI-raROBO4-transfected …); test: flow cytometry (FC500), HEK293 cells transfected with pCI-raROBO4, FITC goat anti-human IgG Fc; control histogram IgG (human IgG)

| Binder | binding result [1] | binding result [2] |
| --- | --- | --- |
| humanized MAb1 antibody H-1143 (antibody, human IgG2, kappa, V domains shown, Human IgG2 / kappa constant regions; also called hMAb1-H2-type heavy chain + hMAb1-L2-type light chain) VH: EVQLVESGGGLVQPGGSLRLSCAASGFTFSTYAMSWVRQAPGKGLEWVATISQGGTYTYYPDSVKGRFTISRDNAKNTLYLQMNSLRAEDTAVYYCARLIYYDYLDYWGQGTLVTVSS VL: DIVMTQSPLSLPVTLGEPASISCRSSQSLENENKNLYLNWYLQKPGQSPQLLIYRVSNRFSGVPDRFSGSGSGTDFTLKISRVEAEDVGVYYCLQVTHVPWTFGPGTKVDIKR | binds |  |
| humanized MAb1 antibody H-2140 (antibody, human IgG2, kappa, V domains shown, Human IgG2 / kappa constant regions; also called hMAb1-H4-type heavy chain + hMAb1-L1-type light chain) VH: EVQLVESGGGLVQPGGSLRLSCAASGFTFSTYAMSWVRQAPGKRLEWVATISQGGTYTYYPDSVKGRFTISRDNAKNTLYLQMNSLRAEDTAVYYCARLIYYDYLDYWGQGTLVTVSS VL: DIVMTQSPLSLPVTLGEPASISCRSSQSLENSNGNTYLNWYLQKPGQSPQLLIYRVSNRFSGVPDRFSGSGSGTDFTLKISRVEAEDVGVYYCLQVTHVPWTFGPGTKVDIKR |  | no binding (tested: 10 µg/mL) |
